The supplement of paper PMC9732359
± gives the uncertainty stated by the source.

Assay: protein stability index of a GFP-peptide fusion (yeast GPS) (PSI 1-4); higher = more stable; sorted into four equal gates, so the index is relative within each strain
In short: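 Mid-log yeast cultures in leucine-free medium, carrying a pooled plasmid library, were sorted into four equal gates by their GFP/Cherry fluorescence ratio. Each plasmid expressed Cherry along with GFP fused upstream of a tiled 17-residue yeast protein peptide. Plasmids recovered from each gate were PCR-amplified and Illumina-sequenced, with reads assigned to strains by barcodes. The protein stability index was obtained by summing each gate's read frequency weighted by its gate number.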

Sequence | protein stability index (doa10∆) | protein stability index (pdr5∆) | protein stability index (san1∆) | protein stability index (ubr1∆)
FSMGHIRSSSVSLVAEA [MED4] | 1.52 ± 0.078 | 1.67 ± 0.057 | 1.31 ± 0.14 | 1.69 ± 0.033
FSPDGHIFQVEYALEAV [PRE6] | 3 ± 0.057 | 3.07 ± 0.054 | 3.1 ± 0.035 | 3.18 ± 0.037
FSQTVADNNDLQESINH [ECM29] | 3.03 ± 0.055 | 3.08 ± 0.049 | 3.02 ± 0.047 | 3.1 ± 0.048
FSRHAQQQTSTFNSKPV [SIR4] | 2.38 ± 0.056 | 2.82 ± 0.058 | 2.07 ± 0.076 | 2.38 ± 0.047
FSSSVSLSYMAFPNASK [RRP40] | 1.65 ± 0.078 | 1.76 ± 0.074 | 1.65 ± 0.12 | 1.72 ± 0.072
FSYFFESFESYHNLTTH [RPN6] | 2.61 ± 0.089 | 2.65 ± 0.082 | 2.85 ± 0.084 | 2.78 ± 0.066
FTGNNSTPGGGSVFNMN [YOR098C/NUP1] | 2.9 ± 0.097 | 3.58 ± 0.19 |  | 3.03 ± 0.14
FTICLNDRNPRLNENKK [CSN12] | 3.03 ± 0.053 | 3.21 ± 0.056 | 3.11 ± 0.043 | 3.06 ± 0.043
FTLLDFKKQMQTIMKMG [SRP54] | 1.36 ± 0.13 | 2.67 ± 0.15 | 1.42 ± 0.17 | 2.71 ± 0.17
FTNPSVDIQIINQYQLL [SWI1] | 1.44 ± 0.055 | 1.66 ± 0.07 | 1.43 ± 0.11 | 1.31 ± 0.063
FTYNKFLLNQNKQLSQS [YIL149C/MLP2] | 2.68 ± 0.069 | 2.96 ± 0.06 | 3.15 ± 0.06 | 3.17 ± 0.062
FVHSVKKFLRVRIFTKI [SRB4] | 2.21 ± 0.082 | 2.07 ± 0.072 | 1.22 ± 0.12 | 2.07 ± 0.059
FVIRREVTKGEKTYTKA [RPS6A] | 3.24 ± 0.17 | 3.13 ± 0.14 |  | 3.53 ± 0.13
FVNGVATSFSRKKARTF [FAS2] | 1.85 ± 0.12 | 1.76 ± 0.11 | 1.22 ± 0.23 | 1.14 ± 0.074
FVPVPALSAYHKVQTKL [RPS7B] | 2.42 ± 0.046 | 2.52 ± 0.046 | 2.27 ± 0.057 | 2.55 ± 0.032
FVQLCEMGYLIQISKLH [RPC82] | 1.74 ± 0.05 | 1.95 ± 0.064 | 1.77 ± 0.1 | 1.96 ± 0.058
FVSRIPIMFQDFDDSTA [IRR1] | 2.1 ± 0.04 | 1.96 ± 0.042 | 1.69 ± 0.053 | 2 ± 0.03
FVTQFRHLRRTGKVSEF [RET1] | 3.15 ± 0.24 | 2.5 ± 0.17 | 3.07 ± 0.093 | 2.41 ± 0.075
FYKLNMPDEFNTLYTAI [SRP72] | 2.5 ± 0.05 | 2.64 ± 0.053 | 2.66 ± 0.034 | 2.65 ± 0.043
FYQGKTGVVYNVTKSSV [RPL21A] | 2.69 ± 0.11 | 2.58 ± 0.079 | 2.42 ± 0.086 | 2.65 ± 0.071
FYSTNSQYFKFKNDFNS [RPN9] | 2.1 ± 0.067 | 2.11 ± 0.054 | 2.1 ± 0.094 | 2.5 ± 0.053
GAKPAGSTGGLGASFGQ [YGL172W/NUP49] | 3.38 ± 0.14 | 3.41 ± 0.24 | 3.22 ± 0.11 | 3.54 ± 0.071
GASINSMKANTSTNPNG [ARP7] | 2.72 ± 0.089 | 3.19 ± 0.089 | 2.74 ± 0.067 | 2.93 ± 0.058
GASVISLTKDKSIRKDT [SIR4] | 3 ± 0.065 | 3.23 ± 0.055 | 3.06 ± 0.076 | 3.13 ± 0.072
GCDENDSTVNKSITLKG [YDL088C/ASM4] | 3.1 ± 0.091 | 3.27 ± 0.068 | 3.32 ± 0.06 | 3.11 ± 0.066
GCEANIHSLVKQRLDLA [YIL149C/MLP2] | 3.06 ± 0.12 | 3.19 ± 0.11 | 3.05 ± 0.062 | 3.19 ± 0.076

Sequence | protein stability index (doa10∆) | protein stability index (pdr5∆) | protein stability index (san1∆) | protein stability index (ubr1∆)
GDNEYITLRTSGELLQG [MCD1] | 3.14 ± 0.13 | 3.11 ± 0.16 | 3.16 ± 0.097 | 3.36 ± 0.096
GDTVQFAEYIQANIQLY [PRE1] | 2.11 ± 0.065 | 2.31 ± 0.063 | 2.2 ± 0.064 | 2.04 ± 0.053
GDYNNTVYSSEQYIQEL [SMC3] | 2.9 ± 0.11 | 3.2 ± 0.11 | 3.22 ± 0.074 | 3.14 ± 0.042
GDYVAYQLNGVAPFMIK [YMR129W/POM152] | 1.53 ± 0.075 | 1.49 ± 0.08 | 1.66 ± 0.17 | 1.84 ± 0.059
GEDFMEVDYEDKDNPVD [SRB4] | 3.56 ± 0.12 | 2.96 ± 0.24 | 3.46 ± 0.15 | 3.32 ± 0.17
GEENRVRFIGDSVAAIG [QCR2] | 3.3 ± 0.15 | 2.76 ± 0.18 |  | 3 ± 0.24
GEINKICMESLFLEPSW [PCI8] | 1.84 ± 0.12 | 1.89 ± 0.083 | 2.03 ± 0.12 | 1.99 ± 0.063
GEKKVGSNGELFGGRHY [SWP82] | 3.13 ± 0.2 | 3.26 ± 0.13 | 3.73 ± 0.12 | 
GELRDYIEDFLLVIGGN [YJR042W/NUP85] | 2.23 ± 0.075 | 2.38 ± 0.065 | 2.65 ± 0.08 | 1.74 ± 0.037
GEMERDCMIAHGAASFL [RPB2] | 3.04 ± 0.13 | 3.08 ± 0.085 | 3.04 ± 0.073 | 2.76 ± 0.089
GENVFLKRISDGLSFGK [SIR3] | 3.26 ± 0.18 | 3.39 ± 0.17 | 3.42 ± 0.075 | 3.54 ± 0.09
GEVLGITRFGLSKMRDS [RPO31] | 3.56 ± 0.12 | 3.26 ± 0.11 | 3.19 ± 0.075 | 3.46 ± 0.1
GFIENCNGSALVEARSL [MTR3] | 2.66 ± 0.1 | 2.83 ± 0.085 | 2.23 ± 0.12 | 2.15 ± 0.12
GFIFTSMILEAISTDKI [RRI2] | 1.35 ± 0.082 | 1.27 ± 0.072 | 1.26 ± 0.13 | 1.51 ± 0.083
GGCDYIFSLLTGYPDEP [CYT1] | 3.42 ± 0.14 | 3.39 ± 0.15 | 2.77 ± 0.081 | 3.08 ± 0.081
GGFEDVEEYTWSSLLNE [RPB2] |  | 3.19 ± 0.17 | 3.12 ± 0.085 | 
GGFEYFLQPLLLVGLIK [NUT1] | 1.46 ± 0.056 | 1.52 ± 0.063 | 1.37 ± 0.11 | 1.87 ± 0.12
GGLGLNLQTADTVIIFD [SNF2] | 3.18 ± 0.12 | 3.22 ± 0.1 | 3.34 ± 0.13 | 3.38 ± 0.07
GGNGPEDFQQHEQIRRK [RPO26] | 3.3 ± 0.1 | 3.39 ± 0.072 | 3.09 ± 0.089 | 3.44 ± 0.083
GGVGSMGAINNNIPSLT [SNF6] | 3.26 ± 0.11 | 3.34 ± 0.09 | 3.39 ± 0.072 | 3.32 ± 0.1
GHTLINNYKDLLAVAIA [RPP0] | 1.19 ± 0.17 | 1.61 ± 0.24 | 1.31 ± 0.17 | 1.18 ± 0.16
GIFIKILNDSLIYHLKD [IRR1] | 1.54 ± 0.045 | 1.31 ± 0.048 | 1.69 ± 0.068 | 1.75 ± 0.033
GIGGDHAKFSPVSTASY [RPC40] | 2.59 ± 0.079 | 2.9 ± 0.12 | 2.28 ± 0.098 | 2.9 ± 0.062
GIIVAVDSRATAGNWVA [PRE2] | 1.14 ± 0.064 | 1.46 ± 0.079 | 1.24 ± 0.13 | 1.54 ± 0.082
GIKVSLLGIFDDIFIPQ [RPC25] | 1.78 ± 0.077 | 1.73 ± 0.092 | 2 ± 0.18 | 1.77 ± 0.081
GILGNKAQAKMDKRAKN [RPL8A] | 3.59 ± 0.12 | 3.51 ± 0.14 | 3.41 ± 0.057 | 3.63 ± 0.076
